Reference: patent publication JP2022109630A (dated 2022)

Tests used:
Test in all cases: ELISA, immobilised recombinant L7/L12 (10 ng/mL), antibody 10 ug/mL
淋菌(NG)のリボソームタンパク質L7/L12 = molecular target: T1, 淋菌(NG)のリボソームタンパク質L7/L12 (淋菌 (Neisseria gonorrhoeae))
T1 construct: also called Neisseria gonorrhoeae ribosomal protein L7/L12; NG L7/L12

[1] = molecular target: T2, モラキセラ菌(MC)のリボソームタンパク質L7/L12 (モラキセラ菌 (Moraxella catarrhalis))
T2 construct: also called Moraxella catarrhalis ribosomal protein L7/L12; MC L7/L12

[2] = molecular target: T3, クレブシエラ・ニューモニエ(KP)のリボソームタンパク質L7/L12 (クレブシエラ・ニューモニエ (Klebsiella pneumoniae))
T3 construct: also called 肺炎桿菌; Klebsiella pneumoniae ribosomal protein L7/L12

[3] = molecular target: T4, 肺炎球菌(SP)のリボソームタンパク質L7/L12 (肺炎球菌 (Streptococcus pneumoniae))
T4 construct: also called Streptococcus pneumoniae ribosomal protein L7/L12; SP L7/L12

[4] = molecular target: T5, リステリア・モノサイトゲネス(LM)のリボソームタンパク質L7/L12 (リステリア・モノサイトゲネス (Listeria monocytogenes))
T5 construct: also called Listeria monocytogenes ribosomal protein L7/L12; LM L7/L12

[5] = molecular target: T6, 肺炎クラミジア(CP)のリボソームタンパク質L7/L12 (肺炎クラミジア (Chlamydia pneumoniae))
T6 construct: also called Chlamydia pneumoniae ribosomal protein L7/L12; CP L7/L12

[6] = molecular target: T7, 肺炎マイコプラズマ(MP)のリボソームタンパク質L7/L12 (肺炎マイコプラズマ (Mycoplasma pneumoniae))
T7 construct: also called Mycoplasma pneumoniae ribosomal protein L7/L12; MP L7/L12

[7] = molecular target: T8, 百日咳菌(BP)のリボソームタンパク質L7/L12 (百日咳菌 (Bordetella pertussis))
T8 construct: also called Bordetella pertussis ribosomal protein L7/L12; BP L7/L12

[8] = molecular target: T9, サルモネラ菌(SE)のリボソームタンパク質L7/L12 (サルモネラ菌 (Salmonella enteritidis))
T9 construct: also called Salmonella enteritidis ribosomal protein L7/L12; SE L7/L12

[9] = molecular target: T10, クラミジア・トラコマチス(CT)のリボソームタンパク質L7/L12 (クラミジア・トラコマチス (Chlamydia trachomatis))
T10 construct: also called Chlamydia trachomatis ribosomal protein L7/L12; CT L7/L12

[10] = molecular target: T11, 黄色ブドウ球菌(SA)のリボソームタンパク質L7/L12 (黄色ブドウ球菌 (Staphylococcus aureus))
T11 construct: also called Staphylococcus aureus ribosomal protein L7/L12; SA L7/L12

[11] = molecular target: T12, 髄膜炎菌(NM)のリボソームタンパク質L7/L12 (髄膜炎菌 (Neisseria meningitidis))
T12 construct: also called Neisseria meningitidis ribosomal protein L7/L12; NM L7/L12

緑膿菌(PA)のリボソームタンパク質L7/L12 = molecular target: T13, 緑膿菌(PA)のリボソームタンパク質L7/L12 (緑膿菌 (Pseudomonas aeruginosa))
T13 construct: also called Pseudomonas aeruginosa ribosomal protein L7/L12; PA L7/L12

[12] = molecular target: T14, カンピロバクター・ジェジュニ(CJ)のリボソームタンパク質L7/L12 (カンピロバクター・ジェジュニ (Campylobacter jejuni))
T14 construct: also called Campylobacter jejuni ribosomal protein L7/L12; CJ L7/L12

[13] = molecular target: T15, 溶連菌(SPY)のリボソームタンパク質L7/L12 (溶連菌 (Streptococcus pyogenes))
T15 construct: also called Streptococcus pyogenes ribosomal protein L7/L12; SPY L7/L12

[14] = molecular target: T16, インフルエンザ菌(HI)のリボソームタンパク質L7/L12 (インフルエンザ菌 (Haemophilus influenzae))
T16 construct: also called Haemophilus influenzae ribosomal protein L7/L12; HI L7/L12

Measured: absorbance at 450 nm

B1: 汎用性抗体C(CP141A190.1) (antibody, V domains shown)
VH: QVQLQQPGAELVKPGASVKLSCKTSGYNFTSNWIHWVKQRPGQGLEWIGEINPSNGRANYNEKFKNKATLTVDKSSSTAFMHLSSLTSEDSAVYFCSRGDFDEGFTYWGQGTLVTVSA
VL: QIVLTQSPAIMSASLGERVTMTCTASSNVNSDYLHWYQQKPGSSPRLWIYTTSNLASGVPTRFSGNGSGTSYSLTISSMEAEDAATYYCHQYHRSPRTFGGGTKLEIK
notes: also called CP141A190.1; general-purpose antibody C
≥ 0.3 absorbance (450 nm): all assays above

B2: 汎用性抗体A(PA51B2) (antibody, V domains shown)
VH: QVQLQQPGSVLVRPGASVKLSCKPSGYTFTGSWMHWTKQRPGQGLEWIGEIHPYSGNTNYNEKFRVKATLTVDTSSSTTYVDLSSLTSDDSAVYYCASGDFDAGFTYWGQGTLVTVSA
VL: DIVLTQSPASLAVSLGRRATISCKASQSVDYDGDSYMNWYQQKPGQPPKLLIYVASNLESGIPARFSGSGSGTDFTLNIHPVEEEDAATYYCQQTNEDPFTFGAGTKLELK
notes: also called PA51B2; general-purpose antibody A
≥ 0.3 absorbance (450 nm): all assays above
